{"source": "patent US20230357704A1", "about": "(Alliance for Sustainable Energy, LLC, priority 2022, published 2023)", "key": {"[1]": {"tested_on": "P. renovo", "experiment": "Growth of FDH-expressing P. renovo in media supplemented with formate", "format": "cell-based, Picochlorum renovo", "details": "for growth on sodium formate: up to 75 mM sodium formate, 2% CO2, pH=6 Bis-Tris, 5 mM NH4Cl; for growth in media supplemented with formate: 25 mM formate, 2% CO2, pH 6.0", "method": "Cultures were mixed via shaking (170 rpm) at 33° C., 2% CO2, and 125 uE cool white LED lighting.\nFDH variants utilized were mutated from the Pseudomonas sp. 101 FDH, specifically NAD+ utilizing variant (A198G) and NADP+ utilizing variant (A198G/D221Q/C255A/H379K/S380V). FDH transformation vectors were prepared by Twist Bioscience, cloning a ribosomal binding site ([…]) and codon optimized FDH downstream of the ptxD selectable marker in our previously described chloroplast transformation vector. P. renovo transformation was carried out as described previously, with the exception that Critter Technology binding and precipitation buffers were used according to the manufacturers recommendations to bind DNA (plasmid prepared by Twist Bioscience) onto the gold microcarriers for biolistic transformation."}, "[2]": {"tested_on": "P. renovo", "experiment": "Formate utilization, HPLC analysis of culture supernatant", "format": "cell-based, Picochlorum renovo", "details": "for formate consumption: 10 mM sodium formate, evaporative losses taken into account; for formate consumed from the culture media: 25 mM formate, 2% CO2, after 85 hours of cultivation", "method": "Six μL of filtered cell-free supernatant was used for injection into the Bio-Rad HPX-87H (300×7.8 mm) ion exchange column. Elution of the organic acid was carried out with 0.01 N sulfuric acid at a flow rate of 0.6 mL per min. The column temperature was maintained at 55° C."}}}
{"molecule": "SV26: Candida boidinii FDH (C23S), SEQ ID NO: 14 (protein, listed as Candida boidinii) MKIVLVLYDAGKHAADEEKLYGSTENKLGIANWLKDQGHELITTSDKEGETSELDKHIPDADIIITTPFHPAYITKERLDKAKNLKLVVVAGVGSDHIDLDYINQTGKKISVLEVTGSNVVSVAEHVVMTMLVLVRNFVPAHEQIINHDWEVAAIAKDAYDIEGKTIATIGAGRIGYRVLERLLPFNPKELLYYDYQALPKEAEEKVGARRVENIEELVAQADIVTVNAPLHAGTKGLINKELLSKFKKGAWLVNTARGAICVAEDVAAALESGQLRGYGGDVWFPQPAPKDHPWRDMRNKYGAGNAMTPHYSGTTLDAQTRYAEGTKNILESFFTGKFDYRPQDIILLNGEYVTKAYGKHDKK", "values": [{"measurement": "growth on sodium formate", "setting": "[1]", "result": "able to grow"}]}
{"molecule": "SV27: Candida boidinii FDH (C23S/C262A), SEQ ID NO: 16 (protein, listed as Candida boidinii) MKIVLVLYDAGKHAADEEKLYGSTENKLGIANWLKDQGHELITTSDKEGETSELDKHIPDADIIITTPFHPAYITKERLDKAKNLKLVVVAGVGSDHIDLDYINQTGKKISVLEVTGSNVVSVAEHVVMTMLVLVRNFVPAHEQIINHDWEVAAIAKDAYDIEGKTIATIGAGRIGYRVLERLLPFNPKELLYYDYQALPKEAEEKVGARRVENIEELVAQADIVTVNAPLHAGTKGLINKELLSKFKKGAWLVNTARGAIAVAEDVAAALESGQLRGYGGDVWFPQPAPKDHPWRDMRNKYGAGNAMTPHYSGTTLDAQTRYAEGTKNILESFFTGKFDYRPQDIILLNGEYVTKAYGKHDKK", "values": [{"measurement": "growth on sodium formate", "setting": "[1]", "result": "able to grow"}]}
{"molecule": "NAD+-utilizing FDH variant: Pseudomonas sp. 101 formate dehydrogenase mutant A198G, SEQ ID NO: 30, expressed in P. renovo chloroplast (protein, Pseudomonas sp. 101) MAKVLCVLYDDPVDGYPKTYARDDLPKIDHYPGGQTLPTPKAIDFTPGQLLGSVSGELGLRKYLESNGHTLVVTSDKDGPDSVFERELVDADVVISQPFWPAYLTPERIAKAKNLKLALTAGIGSDHVDLQSAIDRNVTVAEVTYCNSISVAEHVVMMILSLVRNYLPSHEWARKGGWNIADCVSHAYDLEAMHVGTVGAGRIGLAVLRRLAPFDVHLHYTQRHRLPESVEKELNLTWHATREDMYPVCDVVTLNAPLHPETEHMINDETLKLFKRGAYIVNTARGKLCDRDAVARALESGRLAGYAGDVWFPQPAPKDHPWRTMPYNGMTPHISGTTLTAQARYAAGTREILECFFEGRPIRDEYLIVQGGALAGTGAKVYSKGNATGGSEEAAKFKKAV", "values": [{"measurement": "growth when supplemented with formate", "setting": "[1]; 5 mM formate, ambient CO2 (0.04%), versus no formate supplementation", "result": "enhanced growth"}, {"measurement": "optical density relative to wild-type", "setting": "[1]; 5 mM formate, ambient CO2 (0.04%), versus unsupplemented wild-type", "result": "> 3.8", "unit": "×"}, {"measurement": "culture density", "setting": "[1]; 10 mM formate compared to 25 mM formate, 2% CO2", "result": "higher culture density"}, {"measurement": "growth in media supplemented with formate", "setting": "[1]", "result": "Growth in media supplemented with 25 mM formate was observed"}, {"measurement": "formate concentration in culture", "setting": "[2]; 5 mM formate added (initial 6.2 mM), ambient CO2 (0.04%), after 312 hours, HPLC", "result": 1.7, "unit": "mM"}, {"measurement": "utilization of the added formate", "setting": "[2]; 5 mM formate, ambient CO2 (0.04%), 312 hours", "result": "74+/−2%"}, {"measurement": "formate consumption", "setting": "[2]; 2% CO2, at 85 hours", "result": "77±2", "unit": "%"}, {"measurement": "formate consumption", "setting": "[2]; 2% CO2, at 132 hours", "result": "88±1", "unit": "%"}, {"measurement": "formate consumed from the culture media", "setting": "[2]", "result": "48±1", "unit": "%"}]}
{"molecule": "NADP+-utilizing FDH variant: Pseudomonas sp. 101 formate dehydrogenase mutant A198G/D221Q/C255A/H379K/S380V, SEQ ID NO: 32, expressed in P. renovo chloroplast (protein, Pseudomonas sp. 101) MSDPTLAQPHLVEVHTTLETVVTTHNHNHRPSINASGEKKKIVGVFYKGNEYAKLNPNFVGCVEGALGIREWLESQGHQYIVTDDKEGPDSELEKHIPDAHVIISTPFHPAYVTAERIKKAQKLELLLTAGIGSDHVDLKAAAAAGLTVAEVTGSNVVSVAEDELMRILILMRNFLPGYHQAVKGEWNVAGIAHRAYDLEGKTVGTVGAGRIGKLLLQRLKPFNCNLLYFDRLRIDPELEKEIGAKFEEDLDAMLPKCDVIVINTPLTEQTRGLFDKNRIAKCKKGVLIVNNARGAIADTQAIADACSSGHVAGYSGDVWDPQPAPKDHPWRYMPNHAMTPHISGTTIDAQLRYAAGVKDMLDRHFKGEDFPEQNYIVKEGQLASQYR", "values": [{"measurement": "growth in media supplemented with formate", "setting": "[1]", "result": "no growth"}, {"measurement": "growth in media supplemented with formate", "setting": "[1]; listed as NADP+ utilizing FDH variant", "result": "did not grow"}, {"measurement": "formate consumed from the culture media", "setting": "[2]", "result": "no formate utilization"}]}
